# Laboratory results taken from PMC2747047.
# Columns and labels:
# Assay in all cases: purified protein
# [1] = tested on: CO/N=C(\C(=O)N[C@@H]1C(=O)N2C(C(=O)O)=C(COC(C)=O)CS[C@H]12)c1csc(N)n1; conditions: Fe/Zn enzyme; buffer not told in main text
# [2] = tested on: C[C@@H](O)[C@H]1C(=O)N2C(C(=O)O)=C(SCCN=CN)C[C@H]12; conditions: Fe/Zn enzyme; buffer not told in main text
# [3] = tested on: O=C(Cc1cccs1)N[C@@H]1C(=O)N2C(C(=O)O)=C(/C=C/c3ccc([N+](=O)[O-])cc3[N+](=O)[O-])CS[C@H]12; type: biochemical, Arabidopsis thaliana; conditions: 10 mM MOPS, pH 7.2 (as in Figure 2), Fe/Zn enzyme
substance,measurement,setting,value
Glx2-1 (Arabidopsis thaliana),Km,[1],25 ± 5 µM
same,kcat,[1],0.20 ± 0.01 s⁻¹
same,Km,[2],23 ± 3 µM
same,kcat,[2],0.20 ± 0.01 s⁻¹
same,Km,[3],9.9 ± 1.6 µM
same,kcat,[3],1.20 ± 0.04 s⁻¹
